Results from paper PMC9896928.

Target: glutathione transferase (GST) tag-fused cGAS
Experiment: SEC + other: fluorescence correlation spectroscopy

## glutathione transferase (GST) tag-fused cGAS (enzyme)
  stoichiometry N: 2
